Molecular target: the molecule itself
Assay: SEC; Ni-NTA affinity purified R-est6 loaded on a Superdex 75 column calibrated with known molecular weight markers; protein in peak 1 and peak 2 confirmed as R-est6 on SDS-PAGE

B1: R-est6, family 6 carboxylesterase from Methylococcus capsulatus (bath) (enzyme, Methylococcus capsulatus (bath strain), UniProt Q60CN0 1-336, looked up)
chain: MSTFDRGFARLLLEICRYTYAKAFALAPEEGDALQWIEQQGGKPDPASLEPIRGGDTSVACVFRYPDKNVVAYMGTKTEFDNAVNAKDSIEDWLNNFRAAPVPFKLGKEHLGLDKEVELPGRVHAGFLSELKAVQAKVIDVLSKNGGKDKPLYLTGHSQGGAEATLATVALLAGGFKVAATYTFAAPRAGDRTFADAVPAEFPFHRIEFGDDIVPHVPPTLLSRWVKTLVTVPRHLPLKRFGVPVKVNEFLELSVHDLGYVGVGRLCYGNHESGQLHVDMSVRQEASLFLGRLTRLLRHPEHWAEHHHLAGTRAEVSAGKKGNYTALVSDFPIVEG
notes: also called MCA0075
- binding result: binds

Source: paper PMC4865677, “Dataset of gene cloning and gel filtration chromatography of R-est6” (Data in Brief, 2016)
